Biological target: endogenous cTn(I-C) dimer (cTnI with TnC) (human (endogenous in heart tissue)) (UniProt P19429)
Experiment: native MS; native top-down MS on a 12-T FTICR, nanoelectrospray by direct infusion, 200 mM ammonium acetate; the heterotrimer was enriched as a whole from heart tissue on NP-Pep, isolated and its subunits ejected by CAD (complex-up, complex-down)

Sequence of endogenous cTn(I-C) dimer (cTnI with TnC) (human (endogenous in heart tissue)) (P19429 whole entry, the tested form may be a part): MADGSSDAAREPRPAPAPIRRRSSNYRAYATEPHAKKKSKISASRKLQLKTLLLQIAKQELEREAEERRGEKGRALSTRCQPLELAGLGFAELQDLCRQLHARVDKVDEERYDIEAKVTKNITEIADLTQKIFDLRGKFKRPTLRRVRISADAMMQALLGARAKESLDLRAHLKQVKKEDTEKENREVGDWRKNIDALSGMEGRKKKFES

Substance: endogenous cardiac troponin T (cTnT) (natural protein)
- stoichiometry N (cTnT:cTnI:TnC): 1

From article PMC10350235
